{"source": "patent US20110212853", "key": {"[1]": {"system": "recombinant human MCP-1 N1pE (human MCP-1 with an N-terminal pyroglutamate)"}, "[2]": {"system": "recombinant human MCP-1(1-76) starting with an N-terminal glutamine"}}, "data": [{"substance": "recombinant human Aminopeptidase P (R&D Systems)", "values": [{"measurement": "N-terminal cleavage, Maldi-TOF mass spectrometry", "setting": "[1]", "result": "conferring resistance against N-terminal degradation by post-proline cleaving enzymes, e.g. DP4 and aminopeptidase P"}, {"measurement": "N-terminal cleavage, Maldi-TOF mass spectrometry", "setting": "[2]", "result": "cleavage of human MCP-1(1-76) bearing an N-terminal glutaminyl residue by recombinant human Aminopeptidase P"}]}]}
